These results are taken from US20190065668.

Usually Km stands for the concentration of substrate that gives half-maximal velocity.

For this data set, the target named is fluorogenic KAHRP PEXEL peptide DABCYL-…-E-EDANS.

B1: recombinant P. vivax plasmepsin V (residues R35-R476), N-terminal fusion tag removed with TEV protease (protein)
chain: GTRSESTEGHSKDLLYKYKLYGDIDEYAYYFLDIDIGTPEQRISLILDTGSSSLSFPCAGCKNCGVHMENPFNLNNSKTSSILYCENEECPFKLNCVKGKCEYMQSYCEGSQISGFYFSDVVSVVSYNNERVTFRKLMGCHMHEESLFLYQQATGVLGMSLSKPQGIPTFVNLLFDNAPQLKQVFTICISENGGELIAGGYDPAYIVRRGGSKSVSGQGSGPVSESLSESGEDPQVALREAEKVVWENVTRKYYYYIKVRGLDMFGTNMMSSSKGLEMLVDSGSTFTHIPEDLYNKLNYFFDILCIQDMNNAYDVNKRLKMTNESFNNPLVQFDDFRKSLKSIIAKENMCVKIVDGVQCWKYLEGLPDLFVTLSNNYKMKWQPHSYLYKKESFWCKGIEKQVNNKPILGLTFFKNRQVIFDIQKNRIGFVDANCPSHPTHTRPR
Consider B1, for which the Km is 20.2 µM and 6.0 µM for the P. falciparum and P. vivax enzymes, respectively; the “cleavage of the fluorogenic peptide” value was “demonstrated specific activity against the PEXEL substrates and cleaved the peptides after the P1 Leucine residue as expected”.

B2: recombinant P. falciparum plasmepsin V (residues N80-R528) (protein)
chain: NASSDLYKYKLYGDIDEYAYYFLDIDIGKPSQRISLILDTGSSSLSFPCNGCKDCGIHMEKPYNLNYSKTSSILYCNKSNCPYGLKCVGNKCEYLQSYCEGSQIYGFYFSDIVTLPSYNNKNKISFEKLMGCHMHEESLFLHQQATGVLGFSLTKPNGVPTFVDLLFKHTPSLKPIYSICVSEHGGELIIGGYEPDYFLSNQKEKQKMDKSDNNSSNKGNVSIKLKNNDKNDDEENNSKDVIVSNNVEDIVWQAITRKYYYYIKIYGLDLYGTNIMDKKELDMLVDSGSTFTHIPENIYNQINYYLDILCIHDMTNIYEINKRLKLTNESLNKPLVYFEDFKTALKNIIQNENLCIKIVDGVQCWKSLENLPNLYITLSNNYKMIWKPSSYLYKKESFWCKGLEKQVNNKPILGLTFFKNKQVIFDLQQNQIAFIESKCPSNLTSSRPR
B2: the Km is 20.2 µM and 6.0 µM for the P. falciparum and P. vivax enzymes, respectively; the “cleavage of the fluorogenic peptide” value is “demonstrated specific activity against the PEXEL substrates and cleaved the peptides after the P1 Leucine residue as expected”.
